B1: TPR t1 (parent)
chain: GACCAAUCUGCCCUCAGAGCUCGAGAACAUCUUCGGAUGCAGAGGAGGCAGGCUUCGGUGGCGCGAUAGCGCCAACGUCCUCAACCUCCAAUGCAUCCCACCACAUGAUGAUGCCUGAAGAGCCUUGGUUUUUUG

Variants of: B1
Assay: polymerase ribozyme fitness, log enrichment relative to wild type (log ratio); higher = more active; in vitro selection for triplet polymerase activity
Outline: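 Fitness compares each genotype's enrichment to that of the wild type on a logarithmic scale, averaging replicates with inverse-variance weights. The logarithm is base 2. Enrichment came from Illumina sequencing of input and output libraries after one triplicate round of in vitro selection, which included frozen incubation at −7 °C, of PCR-built, transcribed mutant libraries of each subunit of a heterodimeric triplet polymerase ribozyme. Only genotypes with ≥10 input reads and ≥1 read per output were kept.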

Variant	polymerase ribozyme fitness (log ratio)
C82U C88G C124U	0.172
C80U A84U	-1.02
A74C C101U U132C	-0.834
C76U G113U	-2.36
U78A C80A C94G U133A	-6.19
C73U G117A G128C	-5.18
G77U C123G	1.23
G77U C123U	1.47
C79A U106C	-0.96
C82A U87A	-0.237
U81G G120A	-3.83
G77U A119G	-0.758
A74C A84U	-0.261
C76U C123G	0.558
C76A A91G C115A	-0.508
C76U C94A U106C U112C	0.627
C82G C98A A118U	-5.57
U81G A95U	-6.29
U78G G107U	-5.32
A75G A83C G93C	-1.73
C76U G110C	-4.7
C73U U96C C99U	-3.39
U78A C115G	-2.13
G77A U96G	-1.12

Variant	polymerase ribozyme fitness (log ratio)
U78A C115G U116G	-3.11
C73U U87A A105U	-1.83
U81G C124A G128C U130G	-2.26
U78A G117A	-1.76
G77A C88G	-0.754
A74U A121U C124A	1.47
C76A G117A C124A	-0.549
G77C C114A G127C	-2.76
A83U A91C G128A	-2.84
C82G G93C U129G	-2.84
A74G G77U C123U	0.945
U81C C97U C114A	-3.09
A83C G93C	-0.701
U78G U96A C124G	1.43
U78A C82G C115A U130A	-0.912
A84G C88U	-0.134
C76G C82G G128U	-3.7
A84U G117C C124G	-1.4
C82U U96A C101A G127A	-4.42
U78C G113A	-1.36
A83C C114A C123G C124G	-0.19
A84U U130C	0.517
U78A G122A	-1.42
U78G U130G	-0.347

Variant	polymerase ribozyme fitness (log ratio)
G77U A91U U133C	-1.24
C79U G122U	0.0245
G77U G113A	-1.38
G77A C104A G128A	-3.06
C73U G110A	-0.705
U78C U87C C115U	-0.381
A74U A83G C99U A100U G120U	-6.6
C82A C97G	-5.53
A84C C85G G93A C101U	-2.22
U78C A121U	1.42
C79U C94U C98U	-1.64
U78G C80U	-0.927
U78C U92G C114U	-2.3
U78G A91C U92G	-3.13
G77U C114G A121C	-1.7
U78G C88U A91U A95U	-3.4
A84U C115A U125G	-0.872
A75U C97A	-5.53
A74U U126G	-1.89
U78C G127U	-1.04
U81G G93A U106A C123U	-3.83
C79A A95G C101U C123U	-4.17
A83U G107A	-5.83
U78C G117C	-3.6

Variant	polymerase ribozyme fitness (log ratio)
U78C G117A	-1.35
C76A G93C C94A U112G	-4.68
A74C C76A A121C	-1.23
C76U A90G A105U	-1.84
C79U A95G A105U	-2.87
C79A U112C G127A	-1.43
C79G U81A C98U C102G G107C	-7.84
C80A U116G G120C C123A	-3.59
C79G C89A	-5.03
U81C C114A	-2.34
U81C U106A	0.0236
C80U U133G	-0.514
A84G U129G	-1.32
U78G G93A	-0.0742
C79U C94G	-0.831
C79U C94A	-4.5
C82U U96G G122A	-1.25
G77C C94U	-0.725
C73U U87C C89G G120A	-1.46
G77A A83C C94U C115G U116C U125G	-4.83
G77A C79U C124A	1.87
A74C U130A	-0.25
A83C U112G G113C G120U U130C	-7.33
C73U U129A	-1.05

Variant	polymerase ribozyme fitness (log ratio)
C73U U129G	-0.782
C80U C101U A118G A121U U131A	0.732
C79G C114A	-0.594
U78C C86A	-0.372
U78G G110U G127U	-2.47
A84U U109G	-4.27
C79G C85G	-3.02
C79G C85A	-3.62
C82G C123G U126C G128C	-2.13
A74U U96C	-0.884
U81A A91G U92G	-4.76
A74U U125A U131G	-0.852
A75G C123U	1.55
C76A C89A U133C	-2.43
A75U C82G U96A C115G	-3.29
A84U U106G A118G	-1.83
C73U C115U	-0.667
A84G C88U U116G C124A	-0.458
U78G C88U U92G G120C U134G	-1.71
C79U G113U U116A	-5.49
C80A U129A	-3.77
G77A C89A C94U G122A	-4.01
A74U C104A C124G	0.0488
G77U C88G	-1.02

Variant	polymerase ribozyme fitness (log ratio)
C79G C123U	0.127
C80A U109G	-5.76
C80A U109A	-6.3
U81C G127C	-1.22
G77U A100C A118U U129C	-1.45
A83C C88U	-0.561
G77C C88A	-0.0409
G77C G117C	-4.29
A83G C86A G113A	-2.01
U78G C114U	-2.96
C79A U129A	-2.44
G77U C88G U92A G113C G122A C123G	-4.68
G77A A83U U87C C104U A105C	-5.02
C73U C104U C115A	0.332
A74G C102G U132C	-5.92
A84U G127A	-0.952
A84C C124A	1.76
A84C C124G	1.9
A83G G93A G120U	-1.68
A74U G110C	-4.41
C73U U126A	-1.7
U78C A105C A121C	-0.547
G77A U109A	-5.95
G77U A91U U132A	-2.14

Variant	polymerase ribozyme fitness (log ratio)
C79U U106A U116C U126C	-1.17
A74U C101U G113A C123G	-1.64
A75G C82U A121G C124G	1.16
G77U A111U	-3.23
C76A A121U U125G	0.374
C76U U112A U116G	-2.03
G77C C115A	0.325
A75G C80A G128U U133C G135C	-4.6
G77U C115G A118C	-5.42
A74U A111C	-1.62
C73U C124U	1.94
C73U C101G G120U	-0.999
U78C U109A	-5.34
G77A U78C C115G	-2.5
G77U U78C A95U C123G	0.706
A74C G77C	-0.117
A83U U125A	-0.797
C76G C123U	1.06
G77U C94U	0.0625
C73U U78C U92G	-2.25
U78C U125A	-0.432
U78C A118U	0.929
A83G A90G	-0.465

— the RNAGym collection of RNA variant scans (doi:10.1073/pnas.2313332121)
